Paper PMC8573169, “Structural basis for the inhibition of the Bacillus subtilis c-di-AMP cyclase CdaA by the phosphoglucomutase GlmM” (The Journal of Biological Chemistry, 2021)
Blank lines part the entries; values can stand above or below the binder they belong to.

B4: full-length B. subtilis GlmM (phosphoglucosamine mutase), His-tagged (enzyme, UniProt O34824 1-448, looked up)
chain: MGKYFGTDGVRGVANSELTPELAFKVGRFGGYVLTKDKQRPKVLIGRDTRISGHMLEGALVAGLLSIGAEVMRLGVISTPGVSYLTKAMDAEAGVMISASHNPVQDNGIKFFGGDGFKLSDEQEAEIERLMDEPEDKLPRPVGADLGLVNDYFEGGQKYLQFLKQTADEDFTGIHVALDCANGATSSLATHLFADLDADVSTMGTSPNGLNINDGVGSTHPEALSAFVKEKNADLGLAFDGDGDRLIAVDEKGNIVDGDQIMYICSKHLKSEGRLKDDTVVSTVMSNLGFYKALEKEGIKSVQTAVGDRYVVEAMKKDGYNVGGEQSGHLIFLDYNTTGDGLLSAIMLMNTLKATGKPLSELAAEMQKFPQLLVNVRVTDKYKVEENEKVKAVISEVEKEMNGDGRILVRPSGTEPLVRVMAEAKTKELCDEYVNRIVEVVRSEMGLE
notes: GlmM of B. subtilis strain 168, full-length protein; also called glmM-his; phosphoglucomutase GlmM; source: E. coli BL21(DE3), purified (Ni-NTA, SEC); also in lysate, mixed with the partner's lysate before Ni-NTA and SEC; not shown: His6, C-terminal, kept

Legend:
[1] = biological target: the molecule itself; assay: crystal structure; purified CdaACD:GlmM_(F369) complex at 10 mg/ml, two conditions (complex 1, 3.6 A; complex 2, 4.2 A); three complexes in the asymmetric unit
[2] = biological target: B4; assay: MST; fluorescently labelled (RED-NHS) CdaACD at 25 nM final, unlabelled GlmM 0.78 uM to 800 uM final; 10 mM HEPES pH 7.5, 150 mM NaCl, 0.05% Tween-20; Monolith NT.115, LED power 95%, MST power 80%; five runs; settings: both partners purified
[3] = biological target: the molecule itself; assay: crystal structure; tag-less CdaACD at 4 mg/ml; 0.1 M sodium cacodylate pH 6.5, 0.1 M ammonium sulfate, 0.3 M sodium formate, 6% PEG 8000, 3% gamma-PGA; dimer in the asymmetric unit; 2.8 A
[4] = biological target: the molecule itself; assay: SEC-SAXS; purified proteins or purified complexes (CdaACD 5 mg/ml, GlmM 24 mg/ml, CdaACD:GlmM 24 mg/ml, CdaACD:GlmM_(F369) 10 mg/ml) on a Shodex KW403 column in 30 mM Tris pH 7.5, 150 mM NaCl, with continuous SAXS data collection; envelopes fitted with the crystal structures

Kd [2]: 14.4 ± 0.962 µM
B1: B. subtilis CdaA catalytic domain (CdaACD), His-tagged (domain or fragment, UniProt Q45589 97-273, looked up)
chain: FFSRSGTPVEEAQQKTIEAITKAINYMAKRRIGALLTIERDTGMGDYIETGIPLNAKVSSELLINIFIPNTPLHDGAVIMKNNEIAAAACYLPLSESPFISKELGTRHRAAVGISEVTDSLTIIVSEETGGVSVAKNGDLHRELTEEALKEMLEAEFKKNTRDTSSNRWYWRGKKNG
notes: C-terminal catalytic (DAC) domain of the c-di-AMP cyclase CdaA of B. subtilis strain 168, starting from amino acid Phe97; The His tag is thrombin cleavable; For MST the protein was labelled with an amine-reactive dye (Monolith Protein Labeling RED-NHS 2nd Generation kit); also called soluble catalytic domain of the c-di-AMP cyclase CdaA; his-cdaACD; source: E. coli BL21(DE3), purified (Ni-NTA, …)
stoichiometry N [1]: 2

B2: tag-less B. subtilis CdaACD (domain or fragment, UniProt Q45589 97-273, looked up)
chain: FFSRSGTPVEEAQQKTIEAITKAINYMAKRRIGALLTIERDTGMGDYIETGIPLNAKVSSELLINIFIPNTPLHDGAVIMKNNEIAAAACYLPLSESPFISKELGTRHRAAVGISEVTDSLTIIVSEETGGVSVAKNGDLHRELTEEALKEMLEAEFKKNTRDTSSNRWYWRGKKNG
notes: C-terminal catalytic (DAC) domain of the c-di-AMP cyclase CdaA of B. subtilis strain 168, starting from amino acid Phe97; also called tag less CdaACD; source: E. coli BL21(DE3), purified (Ni-NTA, SEC), His tag removed with thrombin, SEC; not shown: His6, N-terminal, cleaved
stoichiometry N [3]: 2

B3: B. subtilis GlmM_(F369) variant lacking the C-terminal domain 4, His-tagged (domain or fragment, UniProt O34824 1-369, looked up)
chain: MGKYFGTDGVRGVANSELTPELAFKVGRFGGYVLTKDKQRPKVLIGRDTRISGHMLEGALVAGLLSIGAEVMRLGVISTPGVSYLTKAMDAEAGVMISASHNPVQDNGIKFFGGDGFKLSDEQEAEIERLMDEPEDKLPRPVGADLGLVNDYFEGGQKYLQFLKQTADEDFTGIHVALDCANGATSSLATHLFADLDADVSTMGTSPNGLNINDGVGSTHPEALSAFVKEKNADLGLAFDGDGDRLIAVDEKGNIVDGDQIMYICSKHLKSEGRLKDDTVVSTVMSNLGFYKALEKEGIKSVQTAVGDRYVVEAMKKDGYNVGGEQSGHLIFLDYNTTGDGLLSAIMLMNTLKATGKPLSELAAEMQKF
notes: GlmM of B. subtilis strain 168, residues Met1 to Phe369 (domains 1 to 3, lacking the flexible C-terminal domain 4); also called truncated GlmM; glmM_(F369)-his; source: E. coli BL21(DE3), purified (Ni-NTA, SEC); also in lysate, mixed with the partner's lysate before Ni-NTA and SEC; not shown: His6, C-terminal, kept
stoichiometry N [1]: 2

Binder: B4
stoichiometry N [4]: 2
